Data: US20110028686A1 (published 2011)
Where two headings read alike, the source gives them in different places. Ends that are not written are not given here.

Experiments:
HisKIX [1] = target: T1, HisKIX (UniProt P45481 586-672); assay: FP with HisKIX
T1 construct: range 586-672; the residue numbers fit mouse CBP; also called His-tagged CBP KIX domain; CBP KIX; not shown: amino-terminal hexahistidine tag and linker of pET15b

[2] = target: carbonic anhydrase II (Sigma); assay: FP, 50 nM fluorescein-labelled peptide titrated with carbonic anhydrase II, 25 C
HisKIX [3] = target: T1, HisKIX; assay: FP, fluorescein-labelled peptide titrated with HisKIX, 25 C
HisKIX [4] = target: T1, HisKIX; assay: as above; remark: listed apart in the source

T1 sequence (P45481 586-672): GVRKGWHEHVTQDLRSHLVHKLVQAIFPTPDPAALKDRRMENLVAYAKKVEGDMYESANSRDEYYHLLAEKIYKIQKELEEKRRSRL
carbonic anhydrase II (Sigma), sequence (P00921 2-260): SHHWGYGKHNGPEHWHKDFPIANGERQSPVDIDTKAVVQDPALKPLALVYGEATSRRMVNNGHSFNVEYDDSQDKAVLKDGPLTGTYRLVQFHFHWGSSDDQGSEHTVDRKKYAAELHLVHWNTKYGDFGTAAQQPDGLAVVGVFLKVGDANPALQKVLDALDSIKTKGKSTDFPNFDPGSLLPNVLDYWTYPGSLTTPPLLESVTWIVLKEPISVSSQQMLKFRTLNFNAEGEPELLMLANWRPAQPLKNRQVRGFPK

ΔΔG relative to KID-B^U (HisKIX [1]): > -1.5 kcal/mol
Kd [2]: 66 µM
Kd (HisKIX [3]): 21.5 µM
Kd (HisKIX [4]): 21.5 µM
B1: peptide C^U (peptide)
peptide: RRLSFFYILLDLYLDAPGVC(acetamidofluorescein)-NH2
notes: also called Peptide C (unphosphorylated)
